In publication PMC8091058, “Distinct intramolecular interactions regulate autoinhibition of vinculin binding in αT-catenin and αE-catenin” (The Journal of Biological Chemistry, 2021):

Target: T1, αT-catenin M1-M3 (aa 260–626) (Mus musculus, UniProt Q65CL1 260-626)
T1 construct: αT-catenin, Mus musculus, M1-M3, aa 260-626; in pGEX-TEV; also called αT-catenin M-region; αT-catenin M1-M3 (260–626); source: E. coli BL21-Gold, purified (glutathione-agarose, TEV cleavage, Mono Q or Mono S, S200)
T1 sequence (looked up): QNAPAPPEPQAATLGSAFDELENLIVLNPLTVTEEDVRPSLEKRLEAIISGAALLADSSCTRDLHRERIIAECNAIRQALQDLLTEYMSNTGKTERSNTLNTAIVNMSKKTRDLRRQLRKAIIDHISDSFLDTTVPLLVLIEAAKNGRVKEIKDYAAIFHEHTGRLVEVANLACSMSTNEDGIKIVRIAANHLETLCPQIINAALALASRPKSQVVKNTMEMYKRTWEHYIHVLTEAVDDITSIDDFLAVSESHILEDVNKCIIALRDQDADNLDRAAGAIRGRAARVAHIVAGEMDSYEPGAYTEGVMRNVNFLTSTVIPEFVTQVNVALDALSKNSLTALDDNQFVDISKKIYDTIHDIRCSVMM
Experiment: ITC; vinculin D1 titrated into an equimolar mixture of αT-catenin N1-N2 and M1-M3; 25 °C; 20 mM Hepes pH 8.0, 150 mM NaCl, 1 mM TCEP
Conditions: both partners purified

Kd: 50.1 ± 17.5 nM
dH: -3.1 ± 0.1 kcal/mol
B1: vinculin D1 (aa 1–259) (domain or fragment, UniProt P12003 1-259, looked up)
chain: MPVFHTRTIESILEPVAQQISHLVIMHEEGEVDGKAIPDLTAPVSAVQAAVSNLVRVGKETVQTTEDQILKRDMPPAFIKVENACTKLVRAAQMLQADPYSVPARDYLIDGSRGILSGTSDLLLTFDEAEVRKIIRVCKGILEYLTVAEVVETMEDLVTYTKNLGPGMTKMAKMIDERQQELTHQEHRVMLVNSMNTVKELLPVLISAMKIFVTTKNTKSQGIEEALKNRNFTVEKMSAEINEIIRVLQLTSWDEDAWA
notes: vinculin D1 fragment, aa 1-259, the first 2 four-helix bundles; in pGEX-TEV; also called vinculin aa 1 to 259 (D1); vinculin N-terminus; source: E. coli BL21-Gold, purified (glutathione-agarose, TEV cleavage, Mono Q or Mono S, S200)
